The target in the series is tTA (TetR-VP16) (/ Herpes simplex virus) (UniProt P04483). The series is described as follows: cell_activity. The following applies: CHO-TWIN195 without antibiotic; 8.57% with TET.

Here are results for one substance from patent publication US6287813.

Chain of tTA (TetR-VP16) (/ Herpes simplex virus) (P04483 whole entry): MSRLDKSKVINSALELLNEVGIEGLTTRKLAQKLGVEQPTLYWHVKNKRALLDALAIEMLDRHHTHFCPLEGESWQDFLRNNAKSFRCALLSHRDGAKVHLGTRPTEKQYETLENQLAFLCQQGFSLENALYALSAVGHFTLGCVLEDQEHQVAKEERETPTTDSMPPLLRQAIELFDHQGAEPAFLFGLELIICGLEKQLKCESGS

The substance PhCMV*-1 (tet-responsive promoter) showed an activity of 18.6 mU/ml SEAP.
